Assay: yeast display, Sf9 membrane polyspecificity reagent, FACS + sequencing; frameworks hold sequencing errors
How it was run: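 After 36–48 hours of galactose induction, yeast (Saccharomyces cerevisiae BJ5465) displaying a synthetic nanobody library were stained at 4 °C for 1 hour with 10% biotinylated, detergent-solubilized Sf9 membrane reagent. Streptavidin microbeads enriched the stained cells before FACS sorting into low and high (top ~1%) gates on anti-HA and streptavidin fluorescence. Each clone's polyreactivity label reflects its gate of origin.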

| Sequence | polyreactivity (PSR sort gate) |
| --- | --- |
| QVQLVESGGGLVQAGGSLRLSCAASGRIFAYNAMGWYRQAPGKERELVAAITWSGSTYYADSVKGRFTISRDNAKNTVYLQMNSLKPEDTAVYYCNAQYRGYWNRGYDYWGQGTQVTVSS | high polyreactivity |
| QVQLVESGGGLVQAGGSLRLSCAASGRIFAYYAKGWYRQAPRKQRELVAAISSGGNTNYADSVKGRFTISRDNAKKTVYLQMNSLKPEDSAVYYCSAYHFSFGWIRVDDWGQGTQVTVSS | high polyreactivity |
| QVQLVESGGGLVQAGGSLRLSCAASGRIFAYYVMGWYRQAPAKERELVASISSGGGTYYADSVKGRFTISRDNAKNTVYLQMNSLKPEDTAVYYCAARWLRYVYPDGHLFWYDYWGQGTQVTVSS | high polyreactivity |
| QVQLVESGGGLVQAGGSLRLSCAASGRIFAYYVMGWYRQGPGKERELVASISSGGGTYYADSVKGRFTISRDNAKNTVYLQMNSLKPEDTAVYYCAARWRRYVYPDGHLFWYDYWGQGTQVTVSS | high polyreactivity |
| QVQLVESGGGLVQAGGSLRLSCAASGRIFDANAMGWYRQAPGKERELVAANSRRGGRTYYADSVKGRFTISRDNAKNTVYLQMNSLKPEDTAVYYCARVPTRAEDVAGWTGMDYWGQGTQVTVSS | high polyreactivity |
| QVQLVESGGGLVQAGGSLRLSCAASGRIFDCYAMGWYIQAPGKERELVAAIRASGGRTYYADSVKGRFTISRDNAKNTVYLQMNSLKPEDTAVYYCAADSVKYGGDYWGQGTQVTVSS | high polyreactivity |
| QVQLVESGGGLVQAGGSLRLSCAASGRIFDDNAMGWYRQAHGKERELVATISSTGGRTYYADSVKGRFTISRDNAKKTVYLQMNSLKPEDTAVYYCAARRLQGGYYYWGQGTQVTVSS | high polyreactivity |
| QVQLVESGGGLVQAGGSLRLSCAASGRIFDDYDMGWYRQAPGKEREFVAAISTSGGSTYYADSVKGRFTISRDNAKNTVYLQMNSLKPEDTAVYYCATREYRYTGRQSRRYYWGQGTQVTVSS | high polyreactivity |
| QVQLVESGGGLVQAGGSLRLSCAASGRIFDDYDMGWYRQAPGKERELVAAISFDGGNTYADSVKGRFTISRDNAKNTVYLQMNSLKPEDTAVYYCARDDTSPGYGDQSSNAAYYYWGQGTQVTVSS | low polyreactivity |
| QVQLVESGGGLVQAGGSLRLSCAASGRIFDGNAMGWYRQAPGKERELVATITRGGRTNYADSVKGRFTISRDNAKNTVYLQMNTLKPEDTAVYYCATSYPGYAYNQAWYPYGYWGQGTQVTVSS | low polyreactivity |
| QVQLVESGGGLVQAGGSLRLSCAASGRIFDGNTMGWYIPAPGKERELVAAISGGGSTDYADSVKGRFTISRDNAKNTVYLQMNSLKPEDTAVYYCAATTGPVPLKGDYWGQGTQVTVSS | low polyreactivity |
| QVQLVESGGGLVQAGGSLRLSCAASGRIFDGYAMGWYRQAPGKEWELVASISDDGGSTYYADSVKGRFTISRDNEQNTVYLQLNSLKPDDTAVYYCAAVYRRRSYSFYYWGHGTQVTVSS | high polyreactivity |
| QVQLVESGGGLVQAGGSLRLSCAASGRIFDGYTMGWYRQAPGKERELVAAITYRSGRTYYADSVKGRFTISRDNAKNTVYLQMNSLKPEDTAVYYCNKVKRSFIVNTDDYCGQGTQVTVSS | high polyreactivity |
| QVQLVESGGGLVQAGGSLRLSCAASGRIFDHNAMGWYRQAPGKERELVAAITWSGGRTYYADSVKGRFTISRDNAKNTVYLQMNSLKPEDTAVYYCNAPVSRRGGNYWGLGTQVTVSS | high polyreactivity |
| QVQLVESGGGLVQAGGSLRLSCAASGRIFDIYAMGWYRQAPGKERELVASISWSGDSTYYADSVKGRFTISRDNAKNTVYLEMNSLKPEDTAVYYCAAEGEDTEGYDYDYWGQGTQVTVSS | low polyreactivity |
| QVQLVESGGGLVQAGGSLRLSCAASGRIFDIYDMGWYIQAPGKERELVAAITSGGNTYYADSVKWRFTISRDNAKNTVYLQMNSLKPEDTAVYYCNAARETRPRDYYWGQGTQVTVSS | low polyreactivity |

| Sequence | polyreactivity (PSR sort gate) |
| --- | --- |
| QVQLVESGGGLVQAGGSLRLSCAASGRIFDKYTMGWYRQAPGTERELVAAISKSGSGTFYADSVKGRFTISRDNAKNTVYLQMNSLKPEDTAVYYCARVYTVGTGRSWRLDYWGQGTQVTVSS | high polyreactivity |
| QVQLVESGGGLVQAGGSLRLSCAASGRIFDLNAMGWYRQAPGKERELVAAISYSGGRTFYADSVKGRFTISRDNAKNTVYLQMNSLKPEDTAVYYCNARYGKPAYQYRMDYWGQGTQVTVSS | low polyreactivity |
| QVQLVESGGGLVQAGGSLRLSCAASGRIFDLNAMGWYRQAPGKERELVASITTSTGSTYYADSVKGRFTISRDNAKNTVYLQMNSLKPEDTAVYYCAADKSTHPFPSDPGYGYWGQGTQVTVSS | low polyreactivity |
| QVQLVESGGGLVQAGGSLRLSCAASGRIFDLNAMGWYRQAPGKERELVATITRSGVSTYYADSVKGRFTISRDNAKNTVYLQLYSLKPEDTAVYYCAKDRYGWGYDYWGQGTQVTVSS | low polyreactivity |
| QVQLVESGGGLVQAGGSLRLSCAASGRIFDLYAMGWYRQAPGKERELVATISSGGSTYYADSVKVRFTISRDNAKNTVYLQMNSLKPEDTAVYYCAADSWVQFDYWGQGKQVTVSS | low polyreactivity |
| QVQLVESGGGLVQAGGSLRLSCAASGRIFDNYAMGWYRQAPGKERELVAAITSTGRTNYADSVKGRFTISRDNAKYTVYLQMYSLKPEDTAVYYCNVDYQYARSGHANAYEYYYWGQGTQVTVSS | low polyreactivity |
| QVQLVESGGGLVQAGGSLRLSCAASGRIFDNYVMGWYRQAPGKERELVAAITWDGTSTYYADSVKGRFTISRDNAKNTVYLQMNSLKPEDTAVYYCAADFYPYSWEEVDYWGQGTQVTVSS | low polyreactivity |
| QVQLVESGGGLVQAGGSLRLSCAASGRIFDPHAMGWYRPAPGKERELVASSTRRGGSTYYADSVKGRFTSSRDIAKNNVYLQMNSLKPEDTSVYYCARPNLLSGDYWGQGTQVTVSS | high polyreactivity |
| QVQLVESGGGLVQAGGSLRLSCAASGRIFDPNVMVRYRTAPGKERELVAAIRTSGGRTYYADSVKGRFTISRDNAKNTVYLQMNSLKPEDTAVYYCAALYKGKYDYWGQGTQVNVSS | high polyreactivity |
| QVQLVESGGGLVQAGGSLRLSCAASGRIFDRNAMGWYRQAPGKERELVARISRTGGSTYYADSVKGRFTISRDNAKNTVYLQMNSLKPEDTAVYYCAASRGGGYDYWGQGTQVTVSS | high polyreactivity |
| QVQLVESGGGLVQAGGSLRLSCAASGRIFDRNAMGWYRQAPGTERELVAAISRRGGSTYYADSVKGRFTISRDNAMNTVYLQMNSLKPEDTAVYYCNTGYSTRLHDYWGQGTQVTVSS | high polyreactivity |
| QVQLVESGGGLVQAGGSLRLSCAASGRIFDRYAMGWYRQAPGKEMELVAAISSDANTYYADSVKGRFTISRDNAKNTVYLQMNSLKPEDTAVYYCAKVVKGDHPYDYWGQGTQVTVSS | high polyreactivity |
| QVQLVESGGGLVQAGGSLRLSCAASGRIFDRYAMGWYRQAPGKERELVAVITGGTGNTYYADSVKGRFTISRDNAKNTVYLQMNSLKPEDTAVYYCNARGGYYKFRYPLYYWGQGTQVTVSS | high polyreactivity |
| QVQLVESGGGLVQAGGSLRLSCAASGRIFDSNAMGWYRQAPGKERELVAAITYSGGGTFYADSVKGRITISRDNEKNTDYLQMNSLKPEDTAVYYCAARTSGKYRYYYWGQGTQVTVSS | high polyreactivity |
| QVQLVESGGGLVQAGGSLRLSCAASGRIFDSNDMGWYRQAPGKEREFVAAITSSGGSTYYADSVKGRFTISRDNAKNTVYLQMNSLKPEDTAVYYCAARVYPRPQSYDKRYYWGQGTQVTVSS | low polyreactivity |
| QVQLVESGGGLVQAGGSLRLSCAASGRIFDSYAMGWYRQAPGKERELVATISWDSATTYYADSVKGRFTISRDNAKNTVYLQMNSLKPEDTAVYYCNTRDLYGYPQVTGYDYWGQGTQVTVSS | low polyreactivity |
